# Reference: patent US20260001928A1 (CORTERIA PHARMACEUTICALS, priority 2022, published 2026)
# *1 amine or outer side, *2 acyl side, *3 side chain or, on linkers, in order; H or OH if unused. Where no end group is shown, it is not given here. Side-chain parts run from the residue outwards. [ ]: non-standard residue; d: D form. The star is where a group is joined. C18 diacid = O=C(O)CCCCCCCCCCCCCCCCC(=O)*; C16 diacid = O=C(O)CCCCCCCCCCCCCCC(=O)*; γGlu = O=C(O)[C@H](CCC(=O)[*:2])N[*:1]; NMeI = CC[C@H](C)[C@H](NC)C(=O)O; αMeK = C[C@](N)(CCCCN)C(=O)O; Pentanoyl = CCCCC(=O)*; AEEA = NCCOCCOCC(=O)O; Aib = CC(C)(N)C(=O)O
# T1: CRF1R receptor (UniProt P34998 24-415, limits assumed)
# T1 sequence (looked up): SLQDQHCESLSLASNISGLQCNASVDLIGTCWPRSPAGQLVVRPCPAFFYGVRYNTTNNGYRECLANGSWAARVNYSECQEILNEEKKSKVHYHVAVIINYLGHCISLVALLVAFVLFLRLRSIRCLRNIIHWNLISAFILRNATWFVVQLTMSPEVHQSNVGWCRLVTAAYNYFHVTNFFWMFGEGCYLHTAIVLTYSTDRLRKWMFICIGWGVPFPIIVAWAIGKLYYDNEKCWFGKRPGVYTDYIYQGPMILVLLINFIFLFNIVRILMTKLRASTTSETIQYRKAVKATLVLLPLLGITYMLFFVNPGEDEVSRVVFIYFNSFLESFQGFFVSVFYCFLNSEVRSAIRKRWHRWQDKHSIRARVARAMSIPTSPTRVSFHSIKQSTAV
# Experiments:
# [1] = biological target: human corticotropin-releasing factor 2a (CRF2a receptor) (human), Q13324; assay: cell-based or functional assay
# Chain of human corticotropin-releasing factor 2a (CRF2a receptor) (human), Q13324 (Q13324 20-411): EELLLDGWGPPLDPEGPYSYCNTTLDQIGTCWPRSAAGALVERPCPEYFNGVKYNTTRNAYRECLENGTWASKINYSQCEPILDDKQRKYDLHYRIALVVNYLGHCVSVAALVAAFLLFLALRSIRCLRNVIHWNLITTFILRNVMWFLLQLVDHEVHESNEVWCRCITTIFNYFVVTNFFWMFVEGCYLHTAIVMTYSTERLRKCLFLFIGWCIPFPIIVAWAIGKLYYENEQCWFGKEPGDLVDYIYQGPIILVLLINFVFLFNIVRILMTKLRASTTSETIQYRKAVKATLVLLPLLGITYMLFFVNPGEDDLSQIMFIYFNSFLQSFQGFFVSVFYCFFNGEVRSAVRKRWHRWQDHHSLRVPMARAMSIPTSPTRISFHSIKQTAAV
# CRF1R receptor = biological target: T1, CRF1R receptor; assay: cell-based or functional assay
Binder,EC50 [nM] (cAMP) [1],EC50 (CRF1R receptor) [nM],Emax (% I) (CRF1R receptor) [%]
Pentanoyl-VLSLD[dV]PIKLK([AEEA-AEEA-γGlu-γGlu-C18 diacid])QILLKQERQKKQREQAEKN[Aib]QILEQV-NH2 (SMILES CCCCC(=O)N[C@H](C(=O)N[C@@H](CC(C)C)C(=O)N[C@@H](CO)C(=O)N[C@@H](CC(C)C)C(=O)N[C@@H](CC(=O)O)C(=O)N[C@@H](C(=O)N1CCC[C@H]1C(=O)N[C@H](C(=O)N[C@@H](CCCCN)C(=O)N[C@@H](CC(C)C)C(=O)N[C@@H](CCCCNC(=O)COCCOCCNC(=O)COCCOCCNC(=O)CC[C@H](NC(=O)CC[C@H](NC(=O)CCCCCCCCCCCCCCCCC(=O)O)C(=O)O)C(=O)O)C(=O)N[C@@H](CCC(N)=O)C(=O)N[C@H](C(=O)N[C@@H](CC(C)C)C(=O)N[C@@H](CC(C)C)C(=O)N[C@@H](CCCCN)C(=O)N[C@@H](CCC(N)=O)C(=O)N[C@@H](CCC(=O)O)C(=O)N[C@@H](CCCNC(=N)N)C(=O)N[C@@H](CCC(N)=O)C(=O)N[C@@H](CCCCN)C(=O)N[C@@H](CCCCN)C(=O)N[C@@H](CCC(N)=O)C(=O)N[C@@H](CCCNC(=N)N)C(=O)N[C@@H](CCC(=O)O)C(=O)N[C@@H](CCC(N)=O)C(=O)N[C@@H](C)C(=O)N[C@@H](CCC(=O)O)C(=O)N[C@@H](CCCCN)C(=O)N[C@@H](CC(N)=O)C(=O)NC(C)(C)C(=O)N[C@@H](CCC(N)=O)C(=O)N[C@H](C(=O)N[C@@H](CC(C)C)C(=O)N[C@@H](CCC(=O)O)C(=O)N[C@@H](CCC(N)=O)C(=O)N[C@H](C(N)=O)C(C)C)[C@@H](C)CC)[C@@H](C)CC)[C@@H](C)CC)C(C)C)C(C)C) [SEQ ID NO 32],1.04,> 250,5
[NMeI]VLSLD[dV]PIKLK([γGlu-C16 diacid])QILLKQERQKKQREQAEKNKQILEQV-NH2 (N-terminus assumed; SMILES CC[C@H](C)[C@H](NC)C(=O)N[C@H](C(=O)N[C@@H](CC(C)C)C(=O)N[C@@H](CO)C(=O)N[C@@H](CC(C)C)C(=O)N[C@@H](CC(=O)O)C(=O)N[C@@H](C(=O)N1CCC[C@H]1C(=O)N[C@H](C(=O)N[C@@H](CCCCN)C(=O)N[C@@H](CC(C)C)C(=O)N[C@@H](CCCCNC(=O)CC[C@H](NC(=O)CCCCCCCCCCCCCCC(=O)O)C(=O)O)C(=O)N[C@@H](CCC(N)=O)C(=O)N[C@H](C(=O)N[C@@H](CC(C)C)C(=O)N[C@@H](CC(C)C)C(=O)N[C@@H](CCCCN)C(=O)N[C@@H](CCC(N)=O)C(=O)N[C@@H](CCC(=O)O)C(=O)N[C@@H](CCCNC(=N)N)C(=O)N[C@@H](CCC(N)=O)C(=O)N[C@@H](CCCCN)C(=O)N[C@@H](CCCCN)C(=O)N[C@@H](CCC(N)=O)C(=O)N[C@@H](CCCNC(=N)N)C(=O)N[C@@H](CCC(=O)O)C(=O)N[C@@H](CCC(N)=O)C(=O)N[C@@H](C)C(=O)N[C@@H](CCC(=O)O)C(=O)N[C@@H](CCCCN)C(=O)N[C@@H](CC(N)=O)C(=O)N[C@@H](CCCCN)C(=O)N[C@@H](CCC(N)=O)C(=O)N[C@H](C(=O)N[C@@H](CC(C)C)C(=O)N[C@@H](CCC(=O)O)C(=O)N[C@@H](CCC(N)=O)C(=O)N[C@H](C(N)=O)C(C)C)[C@@H](C)CC)[C@@H](C)CC)[C@@H](C)CC)C(C)C)C(C)C) [SEQ ID NO 5],0.09,158,48
Ac-IVLSLD[dV]PIKLK([γGlu-γGlu-C16 diacid])KILLEQEKQKKQREQAETN[Aib]QILAQV-NH2 (SMILES CC[C@H](C)[C@H](NC(C)=O)C(=O)N[C@H](C(=O)N[C@@H](CC(C)C)C(=O)N[C@@H](CO)C(=O)N[C@@H](CC(C)C)C(=O)N[C@@H](CC(=O)O)C(=O)N[C@@H](C(=O)N1CCC[C@H]1C(=O)N[C@H](C(=O)N[C@@H](CCCCN)C(=O)N[C@@H](CC(C)C)C(=O)N[C@@H](CCCCNC(=O)CC[C@H](NC(=O)CC[C@H](NC(=O)CCCCCCCCCCCCCCC(=O)O)C(=O)O)C(=O)O)C(=O)N[C@@H](CCCCN)C(=O)N[C@H](C(=O)N[C@@H](CC(C)C)C(=O)N[C@@H](CC(C)C)C(=O)N[C@@H](CCC(=O)O)C(=O)N[C@@H](CCC(N)=O)C(=O)N[C@@H](CCC(=O)O)C(=O)N[C@@H](CCCCN)C(=O)N[C@@H](CCC(N)=O)C(=O)N[C@@H](CCCCN)C(=O)N[C@@H](CCCCN)C(=O)N[C@@H](CCC(N)=O)C(=O)N[C@@H](CCCNC(=N)N)C(=O)N[C@@H](CCC(=O)O)C(=O)N[C@@H](CCC(N)=O)C(=O)N[C@@H](C)C(=O)N[C@@H](CCC(=O)O)C(=O)N[C@H](C(=O)N[C@@H](CC(N)=O)C(=O)NC(C)(C)C(=O)N[C@@H](CCC(N)=O)C(=O)N[C@H](C(=O)N[C@@H](CC(C)C)C(=O)N[C@@H](C)C(=O)N[C@@H](CCC(N)=O)C(=O)N[C@H](C(N)=O)C(C)C)[C@@H](C)CC)[C@@H](C)O)[C@@H](C)CC)[C@@H](C)CC)C(C)C)C(C)C) [SEQ ID NO 41],1.85,–,7
[NMeI]VLSLD[dV]PIKLK([AEEA-AEEA-γGlu-γGlu-C18 diacid])QILLKQERQKKQREQAEKN[Aib]QILEQV-NH2 (N-terminus assumed; SMILES CC[C@H](C)[C@H](NC)C(=O)N[C@H](C(=O)N[C@@H](CC(C)C)C(=O)N[C@@H](CO)C(=O)N[C@@H](CC(C)C)C(=O)N[C@@H](CC(=O)O)C(=O)N[C@@H](C(=O)N1CCC[C@H]1C(=O)N[C@H](C(=O)N[C@@H](CCCCN)C(=O)N[C@@H](CC(C)C)C(=O)N[C@@H](CCCCNC(=O)COCCOCCNC(=O)COCCOCCNC(=O)CC[C@H](NC(=O)CC[C@H](NC(=O)CCCCCCCCCCCCCCCCC(=O)O)C(=O)O)C(=O)O)C(=O)N[C@@H](CCC(N)=O)C(=O)N[C@H](C(=O)N[C@@H](CC(C)C)C(=O)N[C@@H](CC(C)C)C(=O)N[C@@H](CCCCN)C(=O)N[C@@H](CCC(N)=O)C(=O)N[C@@H](CCC(=O)O)C(=O)N[C@@H](CCCNC(=N)N)C(=O)N[C@@H](CCC(N)=O)C(=O)N[C@@H](CCCCN)C(=O)N[C@@H](CCCCN)C(=O)N[C@@H](CCC(N)=O)C(=O)N[C@@H](CCCNC(=N)N)C(=O)N[C@@H](CCC(=O)O)C(=O)N[C@@H](CCC(N)=O)C(=O)N[C@@H](C)C(=O)N[C@@H](CCC(=O)O)C(=O)N[C@@H](CCCCN)C(=O)N[C@@H](CC(N)=O)C(=O)NC(C)(C)C(=O)N[C@@H](CCC(N)=O)C(=O)N[C@H](C(=O)N[C@@H](CC(C)C)C(=O)N[C@@H](CCC(=O)O)C(=O)N[C@@H](CCC(N)=O)C(=O)N[C@H](C(N)=O)C(C)C)[C@@H](C)CC)[C@@H](C)CC)[C@@H](C)CC)C(C)C)C(C)C) [SEQ ID NO 31],0.23,> 250,14
Ac-IVLSLD[dV]PIKLK([AEEA-AEEA-γGlu-C18 diacid])KILLEQEKQKKQREQAETN[αMeK]QILAQV-NH2 (not fully specified) [SEQ ID NO 106],0.35,–,6
Ac-IVLSLD[dV]PIKLK([AEEA-AEEA-γGlu-C16 diacid])KILLEQEKQKKQREQAETN[Aib]QILAQV-NH2 (SMILES CC[C@H](C)[C@H](NC(C)=O)C(=O)N[C@H](C(=O)N[C@@H](CC(C)C)C(=O)N[C@@H](CO)C(=O)N[C@@H](CC(C)C)C(=O)N[C@@H](CC(=O)O)C(=O)N[C@@H](C(=O)N1CCC[C@H]1C(=O)N[C@H](C(=O)N[C@@H](CCCCN)C(=O)N[C@@H](CC(C)C)C(=O)N[C@@H](CCCCNC(=O)COCCOCCNC(=O)COCCOCCNC(=O)CC[C@H](NC(=O)CCCCCCCCCCCCCCC(=O)O)C(=O)O)C(=O)N[C@@H](CCCCN)C(=O)N[C@H](C(=O)N[C@@H](CC(C)C)C(=O)N[C@@H](CC(C)C)C(=O)N[C@@H](CCC(=O)O)C(=O)N[C@@H](CCC(N)=O)C(=O)N[C@@H](CCC(=O)O)C(=O)N[C@@H](CCCCN)C(=O)N[C@@H](CCC(N)=O)C(=O)N[C@@H](CCCCN)C(=O)N[C@@H](CCCCN)C(=O)N[C@@H](CCC(N)=O)C(=O)N[C@@H](CCCNC(=N)N)C(=O)N[C@@H](CCC(=O)O)C(=O)N[C@@H](CCC(N)=O)C(=O)N[C@@H](C)C(=O)N[C@@H](CCC(=O)O)C(=O)N[C@H](C(=O)N[C@@H](CC(N)=O)C(=O)NC(C)(C)C(=O)N[C@@H](CCC(N)=O)C(=O)N[C@H](C(=O)N[C@@H](CC(C)C)C(=O)N[C@@H](C)C(=O)N[C@@H](CCC(N)=O)C(=O)N[C@H](C(N)=O)C(C)C)[C@@H](C)CC)[C@@H](C)O)[C@@H](C)CC)[C@@H](C)CC)C(C)C)C(C)C) [SEQ ID NO 42],3.08,–,1
